Data: the supplement of paper PMC9732359
± gives the uncertainty stated by the source.

Assay: protein stability index of a GFP-peptide fusion (yeast GPS) (PSI 1-4); higher = more stable; sorted into four equal gates, so the index is relative within each strain
Outline: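 Yeast carrying a pooled library were grown to mid-log phase in leucine-free medium. Each library plasmid expresses Cherry and has a tiled 17-residue yeast protein peptide fused downstream of GFP. Cells were sorted into four equal gates by GFP/Cherry ratio, and plasmids from each gate were PCR-amplified, Illumina-sequenced and assigned to strains by barcode. Summing, across gates, the read frequency times the gate number gave each peptide's protein stability index.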

Row | Sequence | protein stability index (doa10∆) | protein stability index (pdr5∆) | protein stability index (san1∆) | protein stability index (ubr1∆)
1 | LSDNAKTLHSQMMSKGI [RPC34] | 3.19 ± 0.18 | 3.32 ± 0.098 | 3.26 ± 0.071 | 3.11 ± 0.056
2 | LFRAIYLYCLDNNITEM [YCG1] | 2.08 ± 0.052 | 2.09 ± 0.044 | 2.1 ± 0.061 | 2.38 ± 0.05
3 | PNLLFSMCGFEVRILPR [PRP8] | 2.41 ± 0.051 | 1.9 ± 0.047 | 2.25 ± 0.055 | 2.27 ± 0.046
4 | TEELSITGEKLDTQLND [SMC1] | 1.86 ± 0.068 | 2.41 ± 0.083 | 2.29 ± 0.12 | 1.36 ± 0.034
5 | RLTRLWIKNEQERQRQI [PRP8] | 2.42 ± 0.14 | 2.56 ± 0.26 |  | 
6 | IASMSTVRASSLQDLIY [SMC2] | 1.92 ± 0.069 | 2.33 ± 0.1 | 2.53 ± 0.092 | 2.25 ± 0.037
7 | IAPRRKRLADGLSVTQK [DIS3] | 3.38 ± 0.088 | 3.3 ± 0.074 | 3.16 ± 0.068 | 3.1 ± 0.061
8 | NVASLVRVQFQFTGFLL [GRR1] | 1.85 ± 0.072 | 1.73 ± 0.075 | 1.48 ± 0.1 | 1.55 ± 0.058
9 | SQHKKILEELDFVRNEL [SMC3] | 3.35 ± 0.14 | 3.09 ± 0.096 | 3.2 ± 0.08 | 3.01 ± 0.057
10 | NILNMSMNNDFQQQQQQ [PGD1] | 2.68 ± 0.078 | 3.04 ± 0.084 | 2.83 ± 0.066 | 2.67 ± 0.071
11 | KIINKPNELSQILTVDP [RPC82] | 3.13 ± 0.28 | 2.56 ± 0.13 | 3.01 ± 0.075 | 2.78 ± 0.09
12 | YQELAYRATSLDPSLRA [YML031W/NDC1] | 2.8 ± 0.049 | 2.89 ± 0.041 | 2.83 ± 0.036 | 2.61 ± 0.031
13 | VWAPTQKCFKLTHRLGG [POP1] | 2.2 ± 0.056 | 1.88 ± 0.056 | 2.3 ± 0.085 | 2.47 ± 0.054
14 | DENGTNSAIANEQEEKS [RPC37] | 2.65 ± 0.083 | 2.83 ± 0.1 | 2.74 ± 0.047 | 3.07 ± 0.051
15 | KALQSIGQLIGEVMKEL [RPT4] | 3.35 ± 0.092 | 3.17 ± 0.15 | 3.39 ± 0.095 | 3.36 ± 0.058
16 | VSNKFEKIFHYGHVFLG [PUP3] | 2.94 ± 0.28 |  |  | 
17 | TVKRGAAGIWTCSCCKK [RPL43A] | 1.68 ± 0.085 | 1.74 ± 0.058 | 1.74 ± 0.11 | 1.94 ± 0.062
18 | RAFQKQPHIFNNPKVKT [RPS11A] | 2.33 ± 0.052 | 2.48 ± 0.043 | 2.59 ± 0.044 | 2.21 ± 0.028
19 | SLDFLNQSFIQQKANLL [COR1] |  | 1.77 ± 0.13 |  | 1.65 ± 0.079
20 | GAETDELSMIMEHFSQQ [RPS12] | 2.88 ± 0.088 | 3.25 ± 0.1 | 3.35 ± 0.059 | 3.23 ± 0.089
21 | VWFSHPRRFGKGSRQCR [RPS29B] | 3.02 ± 0.1 | 3.21 ± 0.065 | 3.44 ± 0.091 | 3.23 ± 0.071
22 | GREGIWSKTIKARTNLH [RPC34] | 1.46 ± 0.12 | 1.58 ± 0.2 |  | 1.51 ± 0.29
23 | HTLALEFVNGGKVVKNV [RRP46] | 2.2 ± 0.18 | 2.22 ± 0.074 | 2.19 ± 0.29 | 2.14 ± 0.13
24 | NNSLSYHSGRLLIQGPK [ITC1] | 2.45 ± 0.054 | 2.3 ± 0.048 | 2.47 ± 0.062 | 2.93 ± 0.051
25 | LHPQLHEVQYQESSSTL [SIN4] | 2.28 ± 0.049 | 2.5 ± 0.041 | 2.41 ± 0.07 | 2.3 ± 0.035
26 | ANGGSTIISPHKDIPEE [DSN1] | 3.44 ± 0.21 | 3.44 ± 0.16 | 3.57 ± 0.079 | 2.88 ± 0.28
27 | KAPLEDDDKKPDDDKIV [RPT1] | 2.67 ± 0.15 | 3.11 ± 0.17 | 3.19 ± 0.14 | 3.26 ± 0.067

Row | Sequence | protein stability index (doa10∆) | protein stability index (pdr5∆) | protein stability index (san1∆) | protein stability index (ubr1∆)
28 | HLSHPGTNKDMILKLVC [ECM29] | 1.52 ± 0.049 | 1.45 ± 0.035 | 1.32 ± 0.09 | 1.91 ± 0.045
29 | NPDDLMKAVRKVAEVKK [RPT4] |  | 3.4 ± 0.25 |  | 
30 | PLSNEVFEISENNSDSN [SWI1] | 3 ± 0.063 | 3.04 ± 0.068 | 2.84 ± 0.084 | 2.98 ± 0.058
31 | TKWGLINYQVDSKLLPK [SWI3] | 2.8 ± 0.11 | 2.41 ± 0.12 | 1.92 ± 0.15 | 2.55 ± 0.077
32 | LRSRLQQQQQQQQQTSP [SNF5] | 2.58 ± 0.057 | 2.95 ± 0.058 | 2.76 ± 0.05 | 2.78 ± 0.049
33 | NRTLYELADLPKLKRIG [GRR1] | 2.88 ± 0.049 | 2.87 ± 0.037 | 2.8 ± 0.042 | 3.02 ± 0.042
34 | ELIIDPLFKKALVDFDE [BRN1] | 3.45 ± 0.16 | 2.98 ± 0.14 | 3.01 ± 0.24 | 3.29 ± 0.13
35 | KKNNAASELANPYSSYV [YAR002W/NUP60] | 2.99 ± 0.062 | 3.02 ± 0.047 | 2.98 ± 0.047 | 2.83 ± 0.054
36 | KFNNGVVIAADTRSTQG [PUP1] | 1.6 ± 0.066 | 2.4 ± 0.13 | 2.2 ± 0.2 | 2.7 ± 0.095
37 | NKDSIEECGRTIHRSFT [CSN12] | 3.21 ± 0.067 | 3.13 ± 0.066 | 3.28 ± 0.043 | 3.12 ± 0.046
38 | SNKILVYESEMEQCKQR [YIL149C/MLP2] | 2.72 ± 0.17 | 2.95 ± 0.17 | 2.18 ± 0.28 | 3.16 ± 0.26
39 | FNAPATGNGTTTTSNTS [YOR098C/NUP1] | 2.44 ± 0.034 | 2.83 ± 0.035 | 2.8 ± 0.035 | 2.836 ± 0.027
40 | AHIEKQSLDTIGGSDAA [RPO21] | 3.18 ± 0.097 | 3.25 ± 0.11 | 3.32 ± 0.12 | 2.95 ± 0.095
41 | PMPIITFLSEWGMEPLE [RPB2] | 2.7 ± 0.06 | 2.96 ± 0.09 | 2.51 ± 0.08 | 2.76 ± 0.071
42 | MGAYKYLEELQRKKQSD [RPL15A] |  | 2.75 ± 0.28 |  | 
43 | VVNDLVGEKLVVVVLEE [SIR3] | 3.42 ± 0.076 | 3.18 ± 0.067 | 3.42 ± 0.042 | 3.53 ± 0.081
44 | ELFKDYKPGSITLENIT [MED1] | 2.53 ± 0.067 | 2.36 ± 0.053 | 1.96 ± 0.062 | 2.11 ± 0.042
45 | AGGGESDSALILMYKGF [UBP6] | 3.29 ± 0.091 | 3.45 ± 0.08 | 3.26 ± 0.12 | 3.35 ± 0.063
46 | ENELFNDRKQTTVSNDL [SSN2] | 2.74 ± 0.16 | 3.14 ± 0.079 | 3.11 ± 0.06 | 3.02 ± 0.081
47 | NNESSDDMDIDEVNDRS [PCI8] | 3.09 ± 0.086 | 3.17 ± 0.072 | 3.05 ± 0.061 | 3.09 ± 0.081
48 | VLEDCRHLPMYTEFIDS [ITC1] | 2.34 ± 0.1 | 2.71 ± 0.075 | 2.77 ± 0.12 | 2.99 ± 0.066
49 | KWPEYVRVQRQKKILSI [RPL8A] | 1.2 ± 0.06 | 1.5 ± 0.055 | 1.15 ± 0.098 | 1.23 ± 0.038
50 | TNVPKAKKRKTLILIQN [SIR3] | 1.67 ± 0.18 | 1.63 ± 0.12 | 1.33 ± 0.22 | 1.4 ± 0.1
51 | SPEESKARSPGIAKPNA [SIR4] | 3.48 ± 0.075 | 3.42 ± 0.09 | 3.09 ± 0.091 | 3.38 ± 0.066
52 | FNGYNPEKKEMIQEVIV [FAS2] | 3.39 ± 0.086 | 3.46 ± 0.1 | 3.4 ± 0.08 | 3.4 ± 0.11
53 | QQQTNALNGIDINTVNT [GRR1] | 3.31 ± 0.053 | 3.25 ± 0.055 | 3.24 ± 0.044 | 3.19 ± 0.05
54 | MAPLSLNFKDDKKYKGL [REC8] | 2.66 ± 0.089 | 2.61 ± 0.14 | 2.47 ± 0.065 | 2.47 ± 0.075
